The record followed here is patent US20080075726A1 (VACCINEX, published 2008).

In one assay the target is T1, recombinant rat IL-6 (rat, UniProt P20607 25-211).
T1 sequence (looked up): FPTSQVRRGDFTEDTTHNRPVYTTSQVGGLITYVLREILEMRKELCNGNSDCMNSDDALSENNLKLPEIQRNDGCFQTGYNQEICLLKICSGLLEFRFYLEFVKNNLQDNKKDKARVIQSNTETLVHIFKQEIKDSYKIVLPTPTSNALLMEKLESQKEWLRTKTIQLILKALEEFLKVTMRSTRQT
The experiment in a line: ELISA on coated rat IL-6; human mAbs detected with rabbit anti-human IgG-HRP; series 100, 50, 25, 12.5 ng/ml (antibody by paragraph 42; headed mIL-6 (ng/ml) on the sheet). Here is the method:
(§1) For sample “0,” no antibody was added. […] Each column represents a mean of two experiments +/− standard deviation.
(§2) For experiments using human monoclonal antibodies, IgG1 Kappa (human myeloma IgG1; Sigma-Aldrich Co.) mAb was used as a control. Rabbit anti-human IgG-HRP (Dako) was added at a dilution of 1/10,000 at 100 μl/well for detection of mAbs. […] For pAbs, Streptavidin-HRP (Prozyme) was added for detection at 100 μl/well. Antibodies were applied at concentrations of 12.5, 25, 50, and 100 ng/ml.

The target of assay [1] is T2, recombinant human IL-6 (human, UniProt P05231 30-212, limits assumed).
T2 construct: also called rhIL6; human recombinant IL-6
The experiment in a line: Biacore 2000, mAb captured on anti-human IgG CM5 chip, human IL-6 40-1.25 nM injected. Here is the method: (§3) IC50 ELISA was performed as described above. Affinity analysis by Biacore was performed according to manufacturer protocols using HBS-EP buffer (Biacore AB).
In general terms: Surface plasmon resonance follows binding to a sensor surface in real time, without labels.

For a further assay, the target named is T3, recombinant murine IL-6 (murine, UniProt P08505 25-211).
T3 sequence (looked up): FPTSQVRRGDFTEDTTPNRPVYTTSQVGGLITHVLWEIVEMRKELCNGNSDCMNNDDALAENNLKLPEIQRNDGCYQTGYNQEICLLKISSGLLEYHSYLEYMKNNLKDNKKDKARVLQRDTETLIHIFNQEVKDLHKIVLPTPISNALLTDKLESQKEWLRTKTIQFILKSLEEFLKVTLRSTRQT
The experiment in a line: ELISA on coated murine IL-6; human mAbs detected with rabbit anti-human IgG-HRP; series 100, 50, 25, 12.5 ng/ml (antibody by paragraph 42; headed mIL-6 (ng/ml) on the sheet). The method, then: as §1, §2

Assay [2] concerns the target T2, recombinant human IL-6. The assay is described as follows: competition ELISA, rhIL-6 in solution against captured IL-6. The method, then: (§4) Briefly, plates were coated with 2 μg/ml of mBE4 capture antibody in coating buffer, 100 μl per well. The plates were incubated overnight. Next, the plates were washed 3 times and tapped dry. The plates were then blocked with 200 μl per well of Assay Diluent or 10% FBS in PBS and incubated for 2 hours. […] The reaction was left at RT for 3-4 hours. […] Next, the plates were washed 3 times and tapped dry. […] The plates were incubated for 1-2 hours. The plates were washed 3 times and tapped dry. […] The plates were incubated at RT for 2 hours. (Therefore, any unbound mAb at this point will be measured by ELISA). Plates were then washed 5 times and tapped dry. 100 μl of detection Ab goat anti-human IgG F(ab)′2-HRP (Jackson lab) was added at 1:20,000 dilutions or 1:40,000 dilutions (depending on lot) and the plates were incubated for 1-2 hours. The plates were washed 7 times and tapped dry. Next, the Developer Substrate (equal parts of each reagent in the kit) was pre-mixed and allowed to warm to room temperature before use. Then 100 μl of Developer was added to each well. The plates were allowed to develop for 15 minutes un-sealed in a drawer in the dark. Finally, developing was stopped by adding 100 μl of 2N H₂SO₄ to each well and plates were read as Endpoint at 450 nm-[…].
(In general: In an ELISA, binding on a coated surface is turned into a signal by an enzyme label.)

The target in assay [3] is T2, recombinant human IL-6. The experiment in a line: competition ELISA, rhIL-6 in solution against captured IL-6 (Affinity (nM) by IC50 ELISA). The method, then: as §4, §3
Assay [4] addresses T4, natural monkey IL-6 from rhesus monkey serum (rhesus monkey, UniProt P51494 28-212, limits assumed).
T4 sequence (looked up): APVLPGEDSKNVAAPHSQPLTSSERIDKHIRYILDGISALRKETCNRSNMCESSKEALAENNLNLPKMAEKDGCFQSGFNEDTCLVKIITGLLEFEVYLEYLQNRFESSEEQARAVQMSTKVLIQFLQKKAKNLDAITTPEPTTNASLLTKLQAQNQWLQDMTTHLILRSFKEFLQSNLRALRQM
The assay is described as follows: competition ELISA (U-Cytech Monkey IL-6 kit): rhesus monkey serum (plasma on the sheet) at dilutions 1/10 to 1/640 with the antibody at 5 µg/ml as competitor of the kit's coated IL-6 antibody; a lower OD than the sample '0' means binding.

The next assay addresses human serum albumin (human, UniProt P02768 25-609). The experiment in a line: ELISA on a panel of control antigens (data not shown).
Another assay concerns the target bovine serum albumin (bovine, UniProt P02769 25-607). Described as above.
The next assay has as its target human insulin (human, UniProt P01308 25-54; P01308 90-110, limits assumed). The assay is described as above.
In assay [5] the target is T2, recombinant human IL-6. The experiment in a line: flow cytometry blocking assay: biotinylated rhIL-6 (12 ng/ml on the sheet; 12.5 ng/ml in paragraph 183) pre-incubated with the mAb, then U266 cells bearing IL-6 receptor added; cell-bound IL-6 shown with streptavidin-PE; readout % inhibition. Here is the method: FcR-blocked U266 cells (about 250,000 cells) were then added and co-incubated for another 30 min on ice. […] After washing, the cells were analyzed by flow cytometry.
On the technique in general: In flow cytometry, cells or beads pass a laser one at a time.

Chain of bovine serum albumin (P02769 25-607 limits assumed): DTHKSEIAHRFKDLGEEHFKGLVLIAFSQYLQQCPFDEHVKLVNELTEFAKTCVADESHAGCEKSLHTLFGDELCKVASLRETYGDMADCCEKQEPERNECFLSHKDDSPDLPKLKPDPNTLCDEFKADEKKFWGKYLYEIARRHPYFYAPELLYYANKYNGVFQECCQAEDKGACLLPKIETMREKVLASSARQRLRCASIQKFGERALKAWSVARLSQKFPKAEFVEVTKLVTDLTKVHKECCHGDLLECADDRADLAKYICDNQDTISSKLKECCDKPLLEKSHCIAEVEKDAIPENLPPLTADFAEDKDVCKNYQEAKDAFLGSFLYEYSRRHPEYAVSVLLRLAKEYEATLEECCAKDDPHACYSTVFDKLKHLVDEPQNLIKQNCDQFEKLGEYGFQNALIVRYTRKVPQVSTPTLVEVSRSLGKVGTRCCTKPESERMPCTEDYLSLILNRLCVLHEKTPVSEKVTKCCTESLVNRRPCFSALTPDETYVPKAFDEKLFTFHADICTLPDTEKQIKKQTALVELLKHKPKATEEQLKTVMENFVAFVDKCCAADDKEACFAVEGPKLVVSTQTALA
Chain of human serum albumin (P02768 25-609 limits assumed): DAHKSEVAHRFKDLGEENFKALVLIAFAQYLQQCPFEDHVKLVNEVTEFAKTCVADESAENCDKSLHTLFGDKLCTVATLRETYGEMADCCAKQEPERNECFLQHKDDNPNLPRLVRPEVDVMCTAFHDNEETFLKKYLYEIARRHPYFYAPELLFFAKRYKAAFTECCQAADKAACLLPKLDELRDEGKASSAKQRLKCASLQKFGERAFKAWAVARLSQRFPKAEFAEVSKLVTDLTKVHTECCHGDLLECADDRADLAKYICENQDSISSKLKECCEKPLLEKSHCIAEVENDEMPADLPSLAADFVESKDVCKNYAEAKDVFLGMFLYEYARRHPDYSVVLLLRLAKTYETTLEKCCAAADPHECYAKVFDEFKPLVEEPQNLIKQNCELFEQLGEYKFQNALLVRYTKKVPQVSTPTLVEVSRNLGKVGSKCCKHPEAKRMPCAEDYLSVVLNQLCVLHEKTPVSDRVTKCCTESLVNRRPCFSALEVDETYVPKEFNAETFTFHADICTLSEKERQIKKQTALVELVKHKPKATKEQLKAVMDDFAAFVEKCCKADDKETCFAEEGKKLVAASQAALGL
Chain of human insulin (P01308 25-54 limits assumed, chain 1 of 2): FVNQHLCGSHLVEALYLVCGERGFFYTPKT
Chain of human insulin (P01308 90-110 limits assumed, chain 2 of 2): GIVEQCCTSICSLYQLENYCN

B1: mAb 926 (antibody, human IgG1, kappa, V domains shown)
VH: QVTLKESGPTLVKPTQTLTLTCSFSGFSLSTSGVGVGWVRQPPGKALEWLAFIFWDDDKYYSPSLESRLTITKDTSKNQVVLTMTNMDPVDTATYYCARSADDYLYYALDYWGQGTLVTVSS
VL: DIQMTQSPSSLSAFVGDGVTMTCWASQSINDYLNWYHQRPGEAPELLVFAASNLQIGVPSRFRGSGSETYFTLTINSLQPEDSGTYFCQNGHSFPLTFGGGTKLEIKR
As to B1, the binding result was “no binding (tested: 100 ng/ml)” in the assay with recombinant rat IL-6 and “no binding (tested: 100 ng/ml (Ab: 0.1 µg/ml in the title))” in the assay with recombinant murine IL-6. Further, the dissociation constant (Kd) (as a rule, the constant that tells how readily two partners part at equilibrium) with recombinant human IL-6 [1] was 0.13 nM. The figures for the IC50 with recombinant human IL-6 [2] and in the assay with recombinant human IL-6 [3] were 0.07 nM and 0.033 nM, respectively.

B2: mAb 1339 (antibody, human IgG1, kappa, V domains shown)
VH: QVTLKESGPTLVKPTQTLTLTCSFSGFSLSTSGVGVGWVRQPPGKALEWLAFIWWDDDKYYSPSLESRLTITKDTSKNQVVLTMTNMDPVDTATYYCARSADDYLYYSFDTWGQGTLVTVSS
VL: DIQMTQSPSSLSAFVGDGVTMTCWASQSINDYLNWYHQRPGEAPELLVFAASNLQIGVPSRFRGSGSETYFTLTINSLQPEDSGTYFCQNAHSFPLTFGGGTKLEIKR
Turning to B2, the binding result was “no binding (tested: 100 ng/ml)” in the assay with recombinant rat IL-6; “binds” in assay [4]; “no binding” in the assay with human serum albumin; “no binding” with bovine serum albumin; “no binding” in the assay with human insulin; “no binding (tested: 100 ng/ml (Ab: 0.1 µg/ml in the title))” with recombinant murine IL-6. Also, the Kd with recombinant human IL-6 [1] turned out to be 0.071 nM. Besides, the IC50 in the assay with recombinant human IL-6 [2] and with recombinant human IL-6 [3] was 0.026 nM each time.

B3: murine mAb B-E8 (antibody, V domains shown)
VH: QVTLKESGPGILKPSQTLSLTCSFSGFSLSTSGMGVGWIRQPSGKGLEWLAHIWWDDDKYYNPSLKSQLTISKDTSRNQVFLKITSVDTADTATYYCARSYDDYLYYALDYWGQGTSVTVSS
VL: DIVMTQSPATLSVTPGDRVSLSCRASQSISDYLHWYQQKSHESPRLLIKSVSQSISGIPSRFSGSGSGSDFTLSINSVEPEDVGVYYCQNGHSFPLTFGAGTKLELK
modifications: Biotinylated in FIG. 16.
notes: Murine anti-IL-6 antibody from which the human mAbs were derived; also called Elsilimomab
With B3, the “IC50 (read off the curve)” value with recombinant human IL-6 [5] is about 20 ng/mL.

B4: mAb 88 (chimeric B-E8 control antibody) (antibody, V domains shown)
VH: QVTLKESGPGILKPSQTLSLTCSFSGFSLSTSGMGVGWIRQPSGKGLEWLAHIWWDDDKYYNPSLKSQLTISKDTSRNQVFLKITSVDTADTATYYCARSYDDYLYYALDYWGQGTSVTVSS
VL: DIVMTQSPATLSVTPGDRVSLSCRASQSISDYLHWYQQKSHESPRLLIKSVSQSISGIPSRFSGSGSGSDFTLSINSVEPEDVGVYYCQNGHSFPLTFGAGTKLELK
modifications: Biotinylated in FIG. 16.
notes: Chimeric form of murine B-E8; also called control mAb 88
In the case of B4, the binding result with recombinant rat IL-6 was “no binding (tested: 100 ng/ml)”; with recombinant murine IL-6, “no binding (tested: 100 ng/ml (Ab: 0.1 µg/ml in the title))”. Besides, the Kd in the assay with recombinant human IL-6 [1] stood at 0.02 nM. The “IC50 (read off the curve)” value with recombinant human IL-6 [5] was about 20 ng/mL. Also, the IC50 (commonly the concentration needed to halve the response being measured) worked out at 0.5 nM in the assay with recombinant human IL-6 [2] and 0.01 nM in the assay with recombinant human IL-6 [3].
